Assay results published in paper PMC9865957, “^68Ga-HBED-CC-WL-12 PET in Diagnosing and Differentiating Pancreatic Cancers in Murine Models” (Pharmaceuticals, 2023).

How the values were obtained:
in vitro = conditions: 10% FBS (serum)
Protocol: The radiochemical purity of [^68Ga]-WL12 was determined by thin-layer chromatography (ITLC) using glass microfiber chromatography paper impregnated with a silica gel as the stationary phase and acetonitrile (50%) as the mobile phase. For the evaluation of in vitro stability, [^68Ga]-WL12 was incubated at 37 °C with saline and 10% serum, respectively, for 60 min. Aliquots (3.7 kBq) of each radiolabeled ligand were taken and analyzed by ITLC.

[1] = In vitro stability in saline (ITLC); assay type: physicochemical; conditions: 37 °C, read-out ITLC (silica gel paper, 50% acetonitrile), mean ± SD
PANC02 cells = assay: Cellular uptake assay, PANC02 cells; assay type: cell-based, murine; conditions: 1.5 kBq tracer, 45 min incubation with constant shaking, γ-counter, mean ± SD
Protocol: (§1) Murine pancreatic cancer cell PANC02 and human glioma cancer cell U87MG were obtained from Tongpai Biotechnology Co., LTD. The cells were cultured in DMEM medium containing 10% fetal bovine serum (FBS) and 1% penicillin–streptomycin. The cells grew adherent when cultured at 37 °C, 5% CO2, and appropriate humidity.
(§2) PANC02 and U87MG cells incubated to a confluence of approximately 80% in a 10 cm Petri dish were digested, centrifugated, and separated to several EP tubes. Then, the cells were incubated with 1.5 kBq ^68Ga-WL12 in a state of constant shaking for 5, 15, 30, and 45 min. At each time point, precipitation of cells was collected after centrifugating and washing by PBS. The radioactivity for each sample was measured by a γ-counter and calculated as the percentage.

U87MG cells = assay: Cellular uptake assay, U87MG cells; assay type: cell-based, human; conditions: 1.5 kBq tracer, 45 min incubation with constant shaking, γ-counter, mean ± SD
Protocol: as §1, §2

in vivo = conditions: female, C57BL/6, mouse, iv, 3.7 MBq, total radioactivity
Protocol: C57BL/6 female mice were obtained from Shanghai Lingchang Biotechnology Co., LTD, Shanghai, China. The animals were kept in the Animal Experiment Center of Shanghai Changhai Hospital of SPF level. Then, 1 × 10^6 PANC02 cells in 0.1 mL mixture of PBS and Matrigel at a 1:1 ratio was inoculated subcutaneous into the right trunk of the mice. When the tumor reached an average volume of 300–500 mm^3, in vivo experiments of tracer metabolism were performed.
All imaging acquisition was performed on a clinical PET-CT scanner (Biograph64, Siemens Healthcare, Erlangen, Germany). Before imaging, the model mice were injected with 50 μL sodium pentobarbital (3%) into the abdominal cavity for anesthesia. […] For quantification of tracer uptake, 3D regions of interest (ROI) were drawn on the muscle, liver, and tumor.

| SMILES | remaining at 1 h (in vitro) [%] | RCP after 60 min incubation in saline [1] [%] | specific binding rate in PANC02 (PANC02 cells) [%] | specific binding rate in U87MG (U87MG cells) [%] | SUV at 20 min (in vivo) [SUV] | SUV at 1.5 h (in vivo) [SUV] | tissue to tissue ratio at 1.5 h (in vivo; tumor-to-liver (T/L) ratio based on SUVmax) | tissue to tissue ratio at 1.5 h (in vivo; tumor-to-muscle (T/M) ratio based on SUVmax) | SUV at 1 h (in vivo) [SUV] |
| --- | --- | --- | --- | --- | --- | --- | --- | --- | --- |
| CCCC[C@H]1C(=O)N(C)[C@@H](CCCC)C(=O)N[C@@H](CCCNC(=O)CCc2ccc(O)c(CN(CCN(CC(=O)O)Cc3cc(CCC(=O)O)ccc3O)CC(=O)O)c2)C(=O)N[C@H](C(=O)NCC(N)=O)CSCC(=O)N[C@@H](Cc2ccc(O)cc2)C(=O)N(C)[C@@H](C)C(=O)N[C@@H](CC(N)=O)C(=O)N2CCC[C@H]2C(=O)N[C@@H](Cc2c[nH]cn2)C(=O)N[C@@H](CC(C)C)C(=O)N2C[C@H](O)C[C@H]2C(=O)N[C@@H](Cc2c[nH]c3ccccc23)C(=O)N[C@@H](CO)C(=O)N[C@@H](Cc2cn(C)c3ccccc23)C(=O)N1C [^68Ga-HBED-CC-WL12, metal not drawn] | 56.5 ± 2.3 | 92.5 ± 1.5 | 31.2 ± 9.4 | 37.7 ± 2.4 | 0.37 | 0.38 ± 0.02 | 0.45 ± 0.03 | > 2 | – |
| N=C(N)NCCC[C@@H]1NC(=O)[C@H](CCCCNC(=O)CC[C@H](NC(=O)CN2CCN(CC(=O)O)CCN(CC(=O)O)CCN(CC(=O)O)CC2)C(=O)NCCCC[C@@H]2NC(=O)[C@@H](Cc3ccccc3)NC(=O)[C@H](CC(=O)O)NC(=O)CNC(=O)[C@H](CCCNC(=N)N)NC2=O)NC(=O)[C@@H](Cc2ccccc2)NC(=O)[C@H](CC(=O)O)NC(=O)CNC1=O [^68Ga-RGD, metal not drawn, reference compound] | – | – | – | – | – | – | – | – | < 0.05 |
